# Data: the Human Domainome abundance scans (Beltran et al. 2025)
# ± gives the uncertainty stated by the source.
# B1: COUP transcription factor 1, residues 83 to 159; numbered along this chain, P10589 (parent)
# chain: HIECVVCGDKSSGKHYGQFTCEGCKSFFKRSVRRNLTYTCRANRNCPIDQHHRNQCQYCRLKKCLKVGMRREAVQRG
# Variants of: B1
# Experiment: abundance fitness (aPCA) (normalised: wild type 0, dead -1); higher = more abundant; growth selection in yeast, the domain comes from the species named
# Conditions: Homo sapiens
row,Variant,abundance fitness
1,HIECVVCGDKSSGKHYGQFTCEGCKSFFKRSVRRNLTYTCRANPNCPIDQHHRNQCQYCRLKKCLKVGMRREAVQRG [R44P],-0.405 ± 0.08
2,HIECVVCGDKSSGKHYGQFTCEGCKSFFKRSVRRNLTYTCRANQNCPIDQHHRNQCQYCRLKKCLKVGMRREAVQRG [R44Q],-0.048 ± 0.065
3,HIECVVCGDKSSGKHYGQFTCEGCKSFFKRSVRRNLTYTCRANSNCPIDQHHRNQCQYCRLKKCLKVGMRREAVQRG [R44S],-0.024 ± 0.043
4,HIECVVCGDKSSGKHYGQFTCEGCKSFFKRSVRRNLTYTCRANTNCPIDQHHRNQCQYCRLKKCLKVGMRREAVQRG [R44T],0.054 ± 0.055
5,HIECVVCGDKSSGKHYGQFTCEGCKSFFKRSVRRNLTYTCRANVNCPIDQHHRNQCQYCRLKKCLKVGMRREAVQRG [R44V],-0.292 ± 0.048
6,HIECVVCGDKSSGKHYGQFTCEGCKSFFKRSVRRNLTYTCRANWNCPIDQHHRNQCQYCRLKKCLKVGMRREAVQRG [R44W],-0.07 ± 0.051
7,HIECVVCGDKSSGKHYGQFTCEGCKSFFKRSVRRNLTYTCRANYNCPIDQHHRNQCQYCRLKKCLKVGMRREAVQRG [R44Y],-0.432 ± 0.2
8,HIECVVCGDKSSGKHYGQFTCEGCKSFFKRSVRRNLTYTCRANRACPIDQHHRNQCQYCRLKKCLKVGMRREAVQRG [N45A],-0.076 ± 0.063
9,HIECVVCGDKSSGKHYGQFTCEGCKSFFKRSVRRNLTYTCRANRCCPIDQHHRNQCQYCRLKKCLKVGMRREAVQRG [N45C],-0.202 ± 0.16
10,HIECVVCGDKSSGKHYGQFTCEGCKSFFKRSVRRNLTYTCRANRDCPIDQHHRNQCQYCRLKKCLKVGMRREAVQRG [N45D],-0.035 ± 0.12
11,HIECVVCGDKSSGKHYGQFTCEGCKSFFKRSVRRNLTYTCRANRECPIDQHHRNQCQYCRLKKCLKVGMRREAVQRG [N45E],-0.025 ± 0.072
12,HIECVVCGDKSSGKHYGQFTCEGCKSFFKRSVRRNLTYTCRANRGCPIDQHHRNQCQYCRLKKCLKVGMRREAVQRG [N45G],-0.004 ± 0.045
13,HIECVVCGDKSSGKHYGQFTCEGCKSFFKRSVRRNLTYTCRANRHCPIDQHHRNQCQYCRLKKCLKVGMRREAVQRG [N45H],-0.182 ± 0.31
14,HIECVVCGDKSSGKHYGQFTCEGCKSFFKRSVRRNLTYTCRANRKCPIDQHHRNQCQYCRLKKCLKVGMRREAVQRG [N45K],-0.265 ± 0.2
15,HIECVVCGDKSSGKHYGQFTCEGCKSFFKRSVRRNLTYTCRANRLCPIDQHHRNQCQYCRLKKCLKVGMRREAVQRG [N45L],-0.322 ± 0.14
16,HIECVVCGDKSSGKHYGQFTCEGCKSFFKRSVRRNLTYTCRANRMCPIDQHHRNQCQYCRLKKCLKVGMRREAVQRG [N45M],-0.245 ± 0.38
17,HIECVVCGDKSSGKHYGQFTCEGCKSFFKRSVRRNLTYTCRANRPCPIDQHHRNQCQYCRLKKCLKVGMRREAVQRG [N45P],0.015 ± 0.16
18,HIECVVCGDKSSGKHYGQFTCEGCKSFFKRSVRRNLTYTCRANRQCPIDQHHRNQCQYCRLKKCLKVGMRREAVQRG [N45Q],0.13 ± 0.075
19,HIECVVCGDKSSGKHYGQFTCEGCKSFFKRSVRRNLTYTCRANRRCPIDQHHRNQCQYCRLKKCLKVGMRREAVQRG [N45R],0.067 ± 0.05
20,HIECVVCGDKSSGKHYGQFTCEGCKSFFKRSVRRNLTYTCRANRSCPIDQHHRNQCQYCRLKKCLKVGMRREAVQRG [N45S],0.061 ± 0.08
21,HIECVVCGDKSSGKHYGQFTCEGCKSFFKRSVRRNLTYTCRANRVCPIDQHHRNQCQYCRLKKCLKVGMRREAVQRG [N45V],-0.058 ± 0.057
22,HIECVVCGDKSSGKHYGQFTCEGCKSFFKRSVRRNLTYTCRANRWCPIDQHHRNQCQYCRLKKCLKVGMRREAVQRG [N45W],-0.049 ± 0.096
23,HIECVVCGDKSSGKHYGQFTCEGCKSFFKRSVRRNLTYTCRANRYCPIDQHHRNQCQYCRLKKCLKVGMRREAVQRG [N45Y],-0.595 ± 0.42
24,HIECVVCGDKSSGKHYGQFTCEGCKSFFKRSVRRNLTYTCRANRNAPIDQHHRNQCQYCRLKKCLKVGMRREAVQRG [C46A],-0.519 ± 0.085

row,Variant,abundance fitness
1,HIECVVCGDKSSGKHYGQFTCEGCKSFFKRSVRRNLTYTCRANRNDPIDQHHRNQCQYCRLKKCLKVGMRREAVQRG [C46D],-0.572 ± 0.24
2,HIECVVCGDKSSGKHYGQFTCEGCKSFFKRSVRRNLTYTCRANRNEPIDQHHRNQCQYCRLKKCLKVGMRREAVQRG [C46E],-0.229 ± 0.074
3,HIECVVCGDKSSGKHYGQFTCEGCKSFFKRSVRRNLTYTCRANRNFPIDQHHRNQCQYCRLKKCLKVGMRREAVQRG [C46F],-0.501 ± 0.38
4,HIECVVCGDKSSGKHYGQFTCEGCKSFFKRSVRRNLTYTCRANRNHPIDQHHRNQCQYCRLKKCLKVGMRREAVQRG [C46H],-0.536 ± 0.22
5,HIECVVCGDKSSGKHYGQFTCEGCKSFFKRSVRRNLTYTCRANRNIPIDQHHRNQCQYCRLKKCLKVGMRREAVQRG [C46I],-0.267 ± 0.2
6,HIECVVCGDKSSGKHYGQFTCEGCKSFFKRSVRRNLTYTCRANRNKPIDQHHRNQCQYCRLKKCLKVGMRREAVQRG [C46K],-0.624 ± 0.2
7,HIECVVCGDKSSGKHYGQFTCEGCKSFFKRSVRRNLTYTCRANRNLPIDQHHRNQCQYCRLKKCLKVGMRREAVQRG [C46L],-0.492 ± 0.078
8,HIECVVCGDKSSGKHYGQFTCEGCKSFFKRSVRRNLTYTCRANRNMPIDQHHRNQCQYCRLKKCLKVGMRREAVQRG [C46M],-0.654 ± 0.15
9,HIECVVCGDKSSGKHYGQFTCEGCKSFFKRSVRRNLTYTCRANRNPPIDQHHRNQCQYCRLKKCLKVGMRREAVQRG [C46P],-0.587 ± 0.18
10,HIECVVCGDKSSGKHYGQFTCEGCKSFFKRSVRRNLTYTCRANRNQPIDQHHRNQCQYCRLKKCLKVGMRREAVQRG [C46Q],-0.18 ± 0.16
11,HIECVVCGDKSSGKHYGQFTCEGCKSFFKRSVRRNLTYTCRANRNRPIDQHHRNQCQYCRLKKCLKVGMRREAVQRG [C46R],-0.602 ± 0.072
12,HIECVVCGDKSSGKHYGQFTCEGCKSFFKRSVRRNLTYTCRANRNSPIDQHHRNQCQYCRLKKCLKVGMRREAVQRG [C46S],-0.604 ± 0.12
13,HIECVVCGDKSSGKHYGQFTCEGCKSFFKRSVRRNLTYTCRANRNVPIDQHHRNQCQYCRLKKCLKVGMRREAVQRG [C46V],-0.433 ± 0.063
14,HIECVVCGDKSSGKHYGQFTCEGCKSFFKRSVRRNLTYTCRANRNWPIDQHHRNQCQYCRLKKCLKVGMRREAVQRG [C46W],-0.779 ± 0.11
15,HIECVVCGDKSSGKHYGQFTCEGCKSFFKRSVRRNLTYTCRANRNCAIDQHHRNQCQYCRLKKCLKVGMRREAVQRG [P47A],-0.008 ± 0.045
16,HIECVVCGDKSSGKHYGQFTCEGCKSFFKRSVRRNLTYTCRANRNCCIDQHHRNQCQYCRLKKCLKVGMRREAVQRG [P47C],-0.206 ± 0.085
17,HIECVVCGDKSSGKHYGQFTCEGCKSFFKRSVRRNLTYTCRANRNCDIDQHHRNQCQYCRLKKCLKVGMRREAVQRG [P47D],-0.271 ± 0.12
18,HIECVVCGDKSSGKHYGQFTCEGCKSFFKRSVRRNLTYTCRANRNCFIDQHHRNQCQYCRLKKCLKVGMRREAVQRG [P47F],-0.023 ± 0.1
19,HIECVVCGDKSSGKHYGQFTCEGCKSFFKRSVRRNLTYTCRANRNCGIDQHHRNQCQYCRLKKCLKVGMRREAVQRG [P47G],-0.153 ± 0.044
20,HIECVVCGDKSSGKHYGQFTCEGCKSFFKRSVRRNLTYTCRANRNCHIDQHHRNQCQYCRLKKCLKVGMRREAVQRG [P47H],-0.296 ± 0.12
21,HIECVVCGDKSSGKHYGQFTCEGCKSFFKRSVRRNLTYTCRANRNCIIDQHHRNQCQYCRLKKCLKVGMRREAVQRG [P47I],-0.137 ± 0.12
22,HIECVVCGDKSSGKHYGQFTCEGCKSFFKRSVRRNLTYTCRANRNCKIDQHHRNQCQYCRLKKCLKVGMRREAVQRG [P47K],-0.035 ± 0.079
23,HIECVVCGDKSSGKHYGQFTCEGCKSFFKRSVRRNLTYTCRANRNCLIDQHHRNQCQYCRLKKCLKVGMRREAVQRG [P47L],-0.141 ± 0.056
24,HIECVVCGDKSSGKHYGQFTCEGCKSFFKRSVRRNLTYTCRANRNCMIDQHHRNQCQYCRLKKCLKVGMRREAVQRG [P47M],-0.267 ± 0.071

row,Variant,abundance fitness
1,HIECVVCGDKSSGKHYGQFTCEGCKSFFKRSVRRNLTYTCRANRNCNIDQHHRNQCQYCRLKKCLKVGMRREAVQRG [P47N],-0.679 ± 0.22
2,HIECVVCGDKSSGKHYGQFTCEGCKSFFKRSVRRNLTYTCRANRNCRIDQHHRNQCQYCRLKKCLKVGMRREAVQRG [P47R],-0.188 ± 0.044
3,HIECVVCGDKSSGKHYGQFTCEGCKSFFKRSVRRNLTYTCRANRNCSIDQHHRNQCQYCRLKKCLKVGMRREAVQRG [P47S],-0.172 ± 0.063
4,HIECVVCGDKSSGKHYGQFTCEGCKSFFKRSVRRNLTYTCRANRNCTIDQHHRNQCQYCRLKKCLKVGMRREAVQRG [P47T],-0.14 ± 0.063
5,HIECVVCGDKSSGKHYGQFTCEGCKSFFKRSVRRNLTYTCRANRNCVIDQHHRNQCQYCRLKKCLKVGMRREAVQRG [P47V],-0.003 ± 0.049
6,HIECVVCGDKSSGKHYGQFTCEGCKSFFKRSVRRNLTYTCRANRNCWIDQHHRNQCQYCRLKKCLKVGMRREAVQRG [P47W],-0.217 ± 0.062
7,HIECVVCGDKSSGKHYGQFTCEGCKSFFKRSVRRNLTYTCRANRNCPADQHHRNQCQYCRLKKCLKVGMRREAVQRG [I48A],-0.366 ± 0.071
8,HIECVVCGDKSSGKHYGQFTCEGCKSFFKRSVRRNLTYTCRANRNCPCDQHHRNQCQYCRLKKCLKVGMRREAVQRG [I48C],-0.25 ± 0.071
9,HIECVVCGDKSSGKHYGQFTCEGCKSFFKRSVRRNLTYTCRANRNCPDDQHHRNQCQYCRLKKCLKVGMRREAVQRG [I48D],-0.302 ± 0.11
10,HIECVVCGDKSSGKHYGQFTCEGCKSFFKRSVRRNLTYTCRANRNCPEDQHHRNQCQYCRLKKCLKVGMRREAVQRG [I48E],-0.23 ± 0.092
11,HIECVVCGDKSSGKHYGQFTCEGCKSFFKRSVRRNLTYTCRANRNCPFDQHHRNQCQYCRLKKCLKVGMRREAVQRG [I48F],-0.11 ± 0.087
12,HIECVVCGDKSSGKHYGQFTCEGCKSFFKRSVRRNLTYTCRANRNCPGDQHHRNQCQYCRLKKCLKVGMRREAVQRG [I48G],-0.466 ± 0.071
13,HIECVVCGDKSSGKHYGQFTCEGCKSFFKRSVRRNLTYTCRANRNCPHDQHHRNQCQYCRLKKCLKVGMRREAVQRG [I48H],-0.93 ± 0.22
14,HIECVVCGDKSSGKHYGQFTCEGCKSFFKRSVRRNLTYTCRANRNCPKDQHHRNQCQYCRLKKCLKVGMRREAVQRG [I48K],-0.661 ± 0.14
15,HIECVVCGDKSSGKHYGQFTCEGCKSFFKRSVRRNLTYTCRANRNCPLDQHHRNQCQYCRLKKCLKVGMRREAVQRG [I48L],-0.147 ± 0.046
16,HIECVVCGDKSSGKHYGQFTCEGCKSFFKRSVRRNLTYTCRANRNCPMDQHHRNQCQYCRLKKCLKVGMRREAVQRG [I48M],-0.13 ± 0.063
17,HIECVVCGDKSSGKHYGQFTCEGCKSFFKRSVRRNLTYTCRANRNCPNDQHHRNQCQYCRLKKCLKVGMRREAVQRG [I48N],-0.151 ± 0.088
18,HIECVVCGDKSSGKHYGQFTCEGCKSFFKRSVRRNLTYTCRANRNCPPDQHHRNQCQYCRLKKCLKVGMRREAVQRG [I48P],-0.788 ± 0.13
19,HIECVVCGDKSSGKHYGQFTCEGCKSFFKRSVRRNLTYTCRANRNCPQDQHHRNQCQYCRLKKCLKVGMRREAVQRG [I48Q],-0.125 ± 0.065
20,HIECVVCGDKSSGKHYGQFTCEGCKSFFKRSVRRNLTYTCRANRNCPRDQHHRNQCQYCRLKKCLKVGMRREAVQRG [I48R],-0.461 ± 0.065
21,HIECVVCGDKSSGKHYGQFTCEGCKSFFKRSVRRNLTYTCRANRNCPSDQHHRNQCQYCRLKKCLKVGMRREAVQRG [I48S],-0.286 ± 0.052
22,HIECVVCGDKSSGKHYGQFTCEGCKSFFKRSVRRNLTYTCRANRNCPTDQHHRNQCQYCRLKKCLKVGMRREAVQRG [I48T],-0.094 ± 0.056
23,HIECVVCGDKSSGKHYGQFTCEGCKSFFKRSVRRNLTYTCRANRNCPWDQHHRNQCQYCRLKKCLKVGMRREAVQRG [I48W],-0.283 ± 0.063
